Where no end group is shown, it is not given here. [ ]: non-standard residue; d: D form. The star is where a group is joined. Palmitoyl = CCCCCCCCCCCCCCCC(=O)*
B1: peptide 2 (Pal-HRKRNNSRLG-NH2) (peptide)
peptide: Palmitoyl-HRKRNNSRLG-NH2
SMILES: CCCCCCCCCCCCCCCC(=O)N[C@@H](Cc1c[nH]cn1)C(=O)N[C@@H](CCCNC(=N)N)C(=O)N[C@@H](CCCCN)C(=O)N[C@@H](CCCNC(=N)N)C(=O)N[C@@H](CC(N)=O)C(=O)N[C@@H](CC(N)=O)C(=O)N[C@@H](CO)C(=O)N[C@@H](CCCNC(=N)N)C(=O)N[C@@H](CC(C)C)C(=O)NCC(N)=O
B2: peptide 15 (Pal-NNSRLGNGVLY-NH2) (peptide)
peptide: Palmitoyl-NNSRLGNGVLY-NH2
SMILES: CCCCCCCCCCCCCCCC(=O)N[C@@H](CC(N)=O)C(=O)N[C@@H](CC(N)=O)C(=O)N[C@@H](CO)C(=O)N[C@@H](CCCNC(=N)N)C(=O)N[C@@H](CC(C)C)C(=O)NCC(=O)N[C@@H](CC(N)=O)C(=O)NCC(=O)N[C@H](C(=O)N[C@@H](CC(C)C)C(=O)N[C@@H](Cc1ccc(O)cc1)C(N)=O)C(C)C
B3: peptide 11 (Pal-HRKRNNSRLGNGV-NH2) (peptide)
peptide: Palmitoyl-HRKRNNSRLGNGV-NH2
SMILES: CCCCCCCCCCCCCCCC(=O)N[C@@H](Cc1c[nH]cn1)C(=O)N[C@@H](CCCNC(=N)N)C(=O)N[C@@H](CCCCN)C(=O)N[C@@H](CCCNC(=N)N)C(=O)N[C@@H](CC(N)=O)C(=O)N[C@@H](CC(N)=O)C(=O)N[C@@H](CO)C(=O)N[C@@H](CCCNC(=N)N)C(=O)N[C@@H](CC(C)C)C(=O)NCC(=O)N[C@@H](CC(N)=O)C(=O)NCC(=O)N[C@H](C(N)=O)C(C)C
B4: peptide 17 (Pal-NSRLGNGVLY-NH2) (peptide)
peptide: Palmitoyl-NSRLGNGVLY-NH2
SMILES: CCCCCCCCCCCCCCCC(=O)N[C@@H](CC(N)=O)C(=O)N[C@@H](CO)C(=O)N[C@@H](CCCNC(=N)N)C(=O)N[C@@H](CC(C)C)C(=O)NCC(=O)N[C@@H](CC(N)=O)C(=O)NCC(=O)N[C@H](C(=O)N[C@@H](CC(C)C)C(=O)N[C@@H](Cc1ccc(O)cc1)C(N)=O)C(C)C
B5: peptide 19 (Pal-SRLGNGVLY-NH2) (peptide)
peptide: Palmitoyl-SRLGNGVLY-NH2
SMILES: CCCCCCCCCCCCCCCC(=O)N[C@@H](CO)C(=O)N[C@@H](CCCNC(=N)N)C(=O)N[C@@H](CC(C)C)C(=O)NCC(=O)N[C@@H](CC(N)=O)C(=O)NCC(=O)N[C@H](C(=O)N[C@@H](CC(C)C)C(=O)N[C@@H](Cc1ccc(O)cc1)C(N)=O)C(C)C
B6: peptide 20 (Pal-RLGNGVLY-NH2) (peptide)
peptide: Palmitoyl-RLGNGVLY-NH2
SMILES: CCCCCCCCCCCCCCCC(=O)N[C@@H](CCCNC(=N)N)C(=O)N[C@@H](CC(C)C)C(=O)NCC(=O)N[C@@H](CC(N)=O)C(=O)NCC(=O)N[C@H](C(=O)N[C@@H](CC(C)C)C(=O)N[C@@H](Cc1ccc(O)cc1)C(N)=O)C(C)C
B7: peptide 12 (Pal-RKRNNSRLGNGVLYASVN-NH2) (peptide)
peptide: Palmitoyl-RKRNNSRLGNGVLYASVN-NH2
SMILES: CCCCCCCCCCCCCCCC(=O)N[C@@H](CCCNC(=N)N)C(=O)N[C@@H](CCCCN)C(=O)N[C@@H](CCCNC(=N)N)C(=O)N[C@@H](CC(N)=O)C(=O)N[C@@H](CC(N)=O)C(=O)N[C@@H](CO)C(=O)N[C@@H](CCCNC(=N)N)C(=O)N[C@@H](CC(C)C)C(=O)NCC(=O)N[C@@H](CC(N)=O)C(=O)NCC(=O)N[C@H](C(=O)N[C@@H](CC(C)C)C(=O)N[C@@H](Cc1ccc(O)cc1)C(=O)N[C@@H](C)C(=O)N[C@@H](CO)C(=O)N[C@H](C(=O)N[C@@H](CC(N)=O)C(N)=O)C(C)C)C(C)C
B8: peptide 8 (Pal-HRKRNNSRLGNGVLYA-NH2) (peptide)
peptide: Palmitoyl-HRKRNNSRLGNGVLYA-NH2
SMILES: CCCCCCCCCCCCCCCC(=O)N[C@@H](Cc1c[nH]cn1)C(=O)N[C@@H](CCCNC(=N)N)C(=O)N[C@@H](CCCCN)C(=O)N[C@@H](CCCNC(=N)N)C(=O)N[C@@H](CC(N)=O)C(=O)N[C@@H](CC(N)=O)C(=O)N[C@@H](CO)C(=O)N[C@@H](CCCNC(=N)N)C(=O)N[C@@H](CC(C)C)C(=O)NCC(=O)N[C@@H](CC(N)=O)C(=O)NCC(=O)N[C@H](C(=O)N[C@@H](CC(C)C)C(=O)N[C@@H](Cc1ccc(O)cc1)C(=O)N[C@@H](C)C(N)=O)C(C)C
B9: peptide 10 (Pal-HRKRNNSRLGNGVL-NH2) (peptide)
peptide: Palmitoyl-HRKRNNSRLGNGVL-NH2
SMILES: CCCCCCCCCCCCCCCC(=O)N[C@@H](Cc1c[nH]cn1)C(=O)N[C@@H](CCCNC(=N)N)C(=O)N[C@@H](CCCCN)C(=O)N[C@@H](CCCNC(=N)N)C(=O)N[C@@H](CC(N)=O)C(=O)N[C@@H](CC(N)=O)C(=O)N[C@@H](CO)C(=O)N[C@@H](CCCNC(=N)N)C(=O)N[C@@H](CC(C)C)C(=O)NCC(=O)N[C@@H](CC(N)=O)C(=O)NCC(=O)N[C@H](C(=O)N[C@@H](CC(C)C)C(N)=O)C(C)C
B10: peptide 13 (Pal-KRNNSRLGNGVLYASVN-NH2) (peptide)
peptide: Palmitoyl-KRNNSRLGNGVLYASVN-NH2
SMILES: CCCCCCCCCCCCCCCC(=O)N[C@@H](CCCCN)C(=O)N[C@@H](CCCNC(=N)N)C(=O)N[C@@H](CC(N)=O)C(=O)N[C@@H](CC(N)=O)C(=O)N[C@@H](CO)C(=O)N[C@@H](CCCNC(=N)N)C(=O)N[C@@H](CC(C)C)C(=O)NCC(=O)N[C@@H](CC(N)=O)C(=O)NCC(=O)N[C@H](C(=O)N[C@@H](CC(C)C)C(=O)N[C@@H](Cc1ccc(O)cc1)C(=O)N[C@@H](C)C(=O)N[C@@H](CO)C(=O)N[C@H](C(=O)N[C@@H](CC(N)=O)C(N)=O)C(C)C)C(C)C
B11: peptide 9 (Pal-HRKRNNSRLGNGVLY-NH2) (peptide)
peptide: Palmitoyl-HRKRNNSRLGNGVLY-NH2
SMILES: CCCCCCCCCCCCCCCC(=O)N[C@@H](Cc1c[nH]cn1)C(=O)N[C@@H](CCCNC(=N)N)C(=O)N[C@@H](CCCCN)C(=O)N[C@@H](CCCNC(=N)N)C(=O)N[C@@H](CC(N)=O)C(=O)N[C@@H](CC(N)=O)C(=O)N[C@@H](CO)C(=O)N[C@@H](CCCNC(=N)N)C(=O)N[C@@H](CC(C)C)C(=O)NCC(=O)N[C@@H](CC(N)=O)C(=O)NCC(=O)N[C@H](C(=O)N[C@@H](CC(C)C)C(=O)N[C@@H](Cc1ccc(O)cc1)C(N)=O)C(C)C
B12: peptide 27 (Pal-KRNNSRLGNGVLY-NH2) (peptide)
peptide: Palmitoyl-KRNNSRLGNGVLY-NH2
SMILES: CCCCCCCCCCCCCCCC(=O)N[C@@H](CCCCN)C(=O)N[C@@H](CCCNC(=N)N)C(=O)N[C@@H](CC(N)=O)C(=O)N[C@@H](CC(N)=O)C(=O)N[C@@H](CO)C(=O)N[C@@H](CCCNC(=N)N)C(=O)N[C@@H](CC(C)C)C(=O)NCC(=O)N[C@@H](CC(N)=O)C(=O)NCC(=O)N[C@H](C(=O)N[C@@H](CC(C)C)C(=O)N[C@@H](Cc1ccc(O)cc1)C(N)=O)C(C)C
B13: peptide 14 (Pal-RNNSRLGNGVLYASVN-NH2) (peptide)
peptide: Palmitoyl-RNNSRLGNGVLYASVN-NH2
SMILES: CCCCCCCCCCCCCCCC(=O)N[C@@H](CCCNC(=N)N)C(=O)N[C@@H](CC(N)=O)C(=O)N[C@@H](CC(N)=O)C(=O)N[C@@H](CO)C(=O)N[C@@H](CCCNC(=N)N)C(=O)N[C@@H](CC(C)C)C(=O)NCC(=O)N[C@@H](CC(N)=O)C(=O)NCC(=O)N[C@H](C(=O)N[C@@H](CC(C)C)C(=O)N[C@@H](Cc1ccc(O)cc1)C(=O)N[C@@H](C)C(=O)N[C@@H](CO)C(=O)N[C@H](C(=O)N[C@@H](CC(N)=O)C(N)=O)C(C)C)C(C)C
B14: peptide 24 (Pal-VFHRKRNNSRLGNGVLYASVN-NH2) (peptide)
peptide: Palmitoyl-VFHRKRNNSRLGNGVLYASVN-NH2
SMILES: CCCCCCCCCCCCCCCC(=O)N[C@H](C(=O)N[C@@H](Cc1ccccc1)C(=O)N[C@@H](Cc1c[nH]cn1)C(=O)N[C@@H](CCCNC(=N)N)C(=O)N[C@@H](CCCCN)C(=O)N[C@@H](CCCNC(=N)N)C(=O)N[C@@H](CC(N)=O)C(=O)N[C@@H](CC(N)=O)C(=O)N[C@@H](CO)C(=O)N[C@@H](CCCNC(=N)N)C(=O)N[C@@H](CC(C)C)C(=O)NCC(=O)N[C@@H](CC(N)=O)C(=O)NCC(=O)N[C@H](C(=O)N[C@@H](CC(C)C)C(=O)N[C@@H](Cc1ccc(O)cc1)C(=O)N[C@@H](C)C(=O)N[C@@H](CO)C(=O)N[C@H](C(=O)N[C@@H](CC(N)=O)C(N)=O)C(C)C)C(C)C)C(C)C
B15: peptide 16 (Pal-RNNSRLGNGVLY-NH2) (peptide)
peptide: Palmitoyl-RNNSRLGNGVLY-NH2
SMILES: CCCCCCCCCCCCCCCC(=O)N[C@@H](CCCNC(=N)N)C(=O)N[C@@H](CC(N)=O)C(=O)N[C@@H](CC(N)=O)C(=O)N[C@@H](CO)C(=O)N[C@@H](CCCNC(=N)N)C(=O)N[C@@H](CC(C)C)C(=O)NCC(=O)N[C@@H](CC(N)=O)C(=O)NCC(=O)N[C@H](C(=O)N[C@@H](CC(C)C)C(=O)N[C@@H](Cc1ccc(O)cc1)C(N)=O)C(C)C

Each binder was assayed against Insulin-like growth factor 1 receptor (IGF1R) (UniProt P08069 31-1367, limits assumed) (assay: cell-based or functional assay).
Sequence of Insulin-like growth factor 1 receptor (IGF1R) (P08069 31-1367 limits assumed): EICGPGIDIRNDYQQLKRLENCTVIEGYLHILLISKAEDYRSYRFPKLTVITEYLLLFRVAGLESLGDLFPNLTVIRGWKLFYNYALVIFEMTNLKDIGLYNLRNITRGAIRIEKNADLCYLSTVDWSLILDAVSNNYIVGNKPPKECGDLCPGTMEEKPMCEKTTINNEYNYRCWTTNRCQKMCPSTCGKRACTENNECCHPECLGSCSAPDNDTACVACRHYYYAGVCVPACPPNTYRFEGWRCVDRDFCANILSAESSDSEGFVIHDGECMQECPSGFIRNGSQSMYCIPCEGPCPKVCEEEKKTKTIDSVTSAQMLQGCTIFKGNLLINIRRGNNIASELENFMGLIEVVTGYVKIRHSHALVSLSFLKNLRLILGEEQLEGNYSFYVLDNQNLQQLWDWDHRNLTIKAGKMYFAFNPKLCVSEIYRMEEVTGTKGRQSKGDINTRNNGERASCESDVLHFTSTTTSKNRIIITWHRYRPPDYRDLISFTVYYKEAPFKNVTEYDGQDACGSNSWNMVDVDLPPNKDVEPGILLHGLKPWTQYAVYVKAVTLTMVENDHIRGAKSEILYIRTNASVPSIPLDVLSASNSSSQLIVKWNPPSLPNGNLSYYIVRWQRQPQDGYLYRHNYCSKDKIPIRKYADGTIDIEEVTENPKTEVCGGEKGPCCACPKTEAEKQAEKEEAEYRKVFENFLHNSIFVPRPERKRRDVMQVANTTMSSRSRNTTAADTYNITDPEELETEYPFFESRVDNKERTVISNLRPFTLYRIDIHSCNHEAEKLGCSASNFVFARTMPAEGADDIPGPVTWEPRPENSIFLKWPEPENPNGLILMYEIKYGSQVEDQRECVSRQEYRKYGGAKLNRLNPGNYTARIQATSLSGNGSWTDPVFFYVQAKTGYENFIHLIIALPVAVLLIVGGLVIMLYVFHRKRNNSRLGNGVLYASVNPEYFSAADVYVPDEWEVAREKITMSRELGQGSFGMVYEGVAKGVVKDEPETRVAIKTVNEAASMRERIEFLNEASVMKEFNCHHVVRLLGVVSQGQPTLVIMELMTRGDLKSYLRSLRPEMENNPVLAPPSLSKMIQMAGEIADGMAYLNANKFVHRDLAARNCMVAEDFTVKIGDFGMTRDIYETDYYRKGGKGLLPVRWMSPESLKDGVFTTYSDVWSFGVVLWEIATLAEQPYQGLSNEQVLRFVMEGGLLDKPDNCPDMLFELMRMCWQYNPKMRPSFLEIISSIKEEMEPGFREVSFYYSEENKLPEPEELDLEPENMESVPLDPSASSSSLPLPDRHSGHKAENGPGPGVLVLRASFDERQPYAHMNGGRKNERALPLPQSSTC

Row | Binder | GI50 (µM), MTT assay, MCF-7 cells | TGI (µM), MTT assay, MCF-7 cells
1 | B1 | 1.3 µM | > 5 µM
2 | B2 | 0.1 µM | 1.5 µM
3 | B3 | 2.5 µM | > 5 µM
4 | B4 | 0.2 µM | 1.5 µM
5 | B5 | 0.15 µM | 2 µM
6 | B6 | 0.2 µM | > 5 µM
7 | B7 | 1.2 µM | 2.7 µM
8 | B8 | 1.4 µM | > 5 µM
9 | B9 | 1.8 µM | > 5 µM
10 | B10 | 0.08 µM | 0.5 µM
11 | B11 | 1.65 µM | > 5 µM
12 | Ac-[dY][dL][dV]G[dN]G[dL][dR][dS][dN][dN][dR][dK](Palmitoyl) [peptide 18 (Ac-YLVGNGLRSNNRK-(ε-Pal)), retro-inverso version of peptide 27] | 0.04 µM | 0.4 µM
13 | B12 | 1.1 µM | 2.5 µM
14 | B13 | 0.1 µM | 0.4 µM
15 | B14 | 0.1 µM | 1.1 µM
16 | B15 | 0.07 µM | 0.5 µM

Source: patent US20110195911A1, “SYNTHETIC ANALOGS OF THE JUXTAMEMBRANE DOMAIN OF IGF1R AND USES THEREOF” (THE UNITED STATES OF AMERICA,AS REPRESENTED BY THE …, priority 2008, published 2011)
